Entries after “also recorded” stand apart in the source; their conditions may differ.
What was measured:
DLL4 = DLL4 expression in mature osteoclasts by qRT-PCR; type: cell-based, mouse
Description: DLL-4 expression is repressed in the presence of […] and IL-17 but can be de-repressed by RANKL. Having identified that DLL4 was required for osteoclasts to induce Foxp3 expression in CD8+ T cells we next tested if DLL-4 expression was affected by pro-inflammatory cytokines. […] As RANKL induced DLL4 in osteoclast precursors, it was hypothesized that adding additional RANKL may overcome the repression of DLL4 by TNFα. To assess the reversibility of DLL4 expression, mature osteoclasts were cultured overnight in 50 ng/ml RANKL and 20 ng/ml […], and then additional RANKL was added to the culture media (while maintaining 20 ng/ml TNFα) as shown in FIG. 5E. Indeed, addition of RANKL overcomes (within 24 hours) the repression of DLL4 by TNFα as assessed by qRT-PCR. […] The experiment was performed as above, but in this case FoxP3 induction in OT-I CD8 T-cells in the presence of OVA and either 10 ng/ml or 20 ng/ml TNFα was measured.
Osteoclasts seeded on day 4 at 1.5×10^6 cells/ml were used in all experiments. RNA was isolated at time point described in Figure legends. 10 to 50 ng of RNA was used for first-strand cDNA synthesis in 50 μL reaction per kit instructions (Superscript III cDNA synthesis system; Invitrogen). In all cases 10% of the cDNA product was used in a 50 μL PCR reaction that contained 10 μM each forward and reverse primers. For quantitative PCR (qPCR) SYBR green system (Invitrogen) was used. Otherwise, cDNA was amplified (25 cycles) and the products resolved on 1.2% agarose gel and visualized by ethidium bromide staining.

TNFα and IL17A = test: Once per month low-dose RANKL or Zoledronate: cytokines from peripheral blood cells by multiplexed ELISA; type: in vivo, mice; conditions: 120 days post-OVX; RANKL 0.125 mg/kg once per month; ZA once 3 weeks post-OVX
Description: (§1) To assess the kinetics of a single treatment, C57BL/6J ovariectomized mice were treated with low-dose RANKL (administered twice 24 hrs apart, 2 weeks post-OVX) and then followed by serum CTX assay. […] In FIG. 11B, to assess whether multiple treatments are effective, sham-operated (Sx) or OVX 12-week old C57BL/6J mice were treated with low-dose RANKL (0.125 mg/kg) once per month or once with the bisphosphonate Zoledronate (ZA; 3 weeks post-OVX). 120 days post-OVX peripheral blood obtained by mandible bleeds was treated to remove RBCs (BD Pharmalyse) then 1 to 3×10^6 cells were plated per well in triplicate (6 mice/group). Media was collected after 36 hours of culturing and cytokine levels quantitated by multiplexed ELISA (Millipore).

IL-17A and TNFα = test: WD-fed ovariectomized WT mice: TcREG and IL-17A/TNFα production by peripheral blood T-cells; type: in vivo; conditions: for peripheral blood T-cells that express TNFα and/or IL-17A (flow cytometry) / IL-17A and TNFα produced by freshly isolated peripheral blood cells (ELISA): WD-fed OVX WT mice
Description: It has been previously shown that low-dose RANKL (IdRANKL) induces TcREG in bone marrow. We postulated that induction of TcREG might be atheroprotective as it protects against osteoporosis in ovariectomized mice. To test that proposal, we first tested the ability of IdRANKL to modulate the systemic availability of proinflammatory cytokines. Thus, a new group of WT mice were fed WD, and subjected to sham or OVX surgeries, then dosed with saline or IdRANKL (two i.p. injections 3 and 7 weeks after OVX). […] We then, measured the ability of freshly isolated T-cells from peripheral blood to produce IL-17A and TNFα. […] Zoledronate is a bisphosphonate that is used clinically to prevent bone resorption (by suppressing osteoclasts). […] Without being limited to any particular theory of operation, we hypothesize that these cells contribute to postmenopausal comorbidities such as atherosclerosis and osteoporosis, and that immunosuppressing therapies such as pulsed IdRANKL will have cardio- and osteo-protective effects.

ovariectomized mice = test: Kinetics of a single low-dose RANKL treatment followed by serum CTX; type: in vivo; conditions: twice 24 hrs apart, 2 weeks post-OVX
Description: Food was withdrawn 6 to 10 hours prior to bleeding. Peripheral blood (100 to 200 μL) obtained via sub-mandibular vein, was allowed to clot for 2 hours at room temperature and serum collected by spinning down the cell pellet. Serum C-terminal telopeptide of type 1 collagen (serum CTX) was measured using ELISA according to the manufacturer's instructions (Immunodiagnostic Systems, Plc)
as §1

B1: receptor activator of NF-κB ligand (protein, UniProt O35235 139-316, looked up)
Tumor necrosis factor ligand …: FSGAPAMMEGSWLDVAQRGKPEAQPFAHLTINAASIPSGSHKVTLSSWYHDRGWAKISNMTLSNGKLRVNQDGFYYLYANICFRHHETSGSVPTDYLQLMVYVVKTSIKIPSSHNLMKGGSTKNWSGNSEFHFYSINVGGFFKLRAGEEISIQVSNPSLLDPDQDATYFGAFKVQDID
modifications: GST tag
- time for RANKL to overcome the repression of DLL4 by TNFα (DLL4; 20 ng/ml TNFα): ≤ 24 h
- DLL4 expression after additional RANKL (DLL4; mature osteoclasts, 50 ng/ml RANKL and 20 ng/ml TNFα maintained): increased the expression of DLL4; also recorded: overcomes
- TNFα and IL17A produced by peripheral blood cells (immunosuppression) (TNFα and IL17A): immunosuppressive
- peripheral blood T-cells that express TNFα and/or IL-17A (flow cytometry) (IL-17A and TNFα): abrogates OVX-induced increase in peripheral blood T-cells that express TNFα and/or IL-17A
- IL-17A and TNFα produced by freshly isolated peripheral blood cells (ELISA) (IL-17A and TNFα; listed as IdRANKL): abrogated the ability of circulating T-cells to secrete IL-17A, TNFα, or both
- peripheral blood T-cells that express TNFα and/or IL-17A (flow cytometry) (IL-17A and TNFα; listed as IdRANKL): prevented such increase
- IL-17A and TNFα produced by freshly isolated peripheral blood cells (ELISA) (IL-17A and TNFα; listed as low-dose RANKL): abrogates OVX-induced increase in TNFα and IL-17A expression
- numbers of CD8+ FoxP3+ cells in the bone marrow (IL-17A and TNFα; WD-fed WT mice, two i.p. injections 3 and 7 weeks after OVX): increased
- time a single treatment is effective to limit bone loss / bone resorption (ovariectomized mice; listed as low dose RANKL): approximately 28 days
- time a single treatment is effective to limit bone loss / bone resorption (ovariectomized mice; listed as low-dose RANKL): up to 30 days
